Experimental data: paper PMC4919518

Key:
RsAgo delP45-W63 = biological target: T1, RsAgo delP45-W63 (Rhodobacter sphaeroides (ATCC 17025D-5), UniProt A4WYU7 1-777, del45-63); assay: fluorescence polarization; 5 mM Mg2+; same binding capacity as WT; FP: 20 mM HEPES-KOH pH 7.5, 200 mM NaCl, 5 mM MgCl2, 0.01 mg/ml E. coli total tRNA, 0.01% NP-40, 10 pM probe, 25 C; EMSA: 20 mM HEPES-KOH pH 7.5, 200 mM NaCl, 5
T1 sequence: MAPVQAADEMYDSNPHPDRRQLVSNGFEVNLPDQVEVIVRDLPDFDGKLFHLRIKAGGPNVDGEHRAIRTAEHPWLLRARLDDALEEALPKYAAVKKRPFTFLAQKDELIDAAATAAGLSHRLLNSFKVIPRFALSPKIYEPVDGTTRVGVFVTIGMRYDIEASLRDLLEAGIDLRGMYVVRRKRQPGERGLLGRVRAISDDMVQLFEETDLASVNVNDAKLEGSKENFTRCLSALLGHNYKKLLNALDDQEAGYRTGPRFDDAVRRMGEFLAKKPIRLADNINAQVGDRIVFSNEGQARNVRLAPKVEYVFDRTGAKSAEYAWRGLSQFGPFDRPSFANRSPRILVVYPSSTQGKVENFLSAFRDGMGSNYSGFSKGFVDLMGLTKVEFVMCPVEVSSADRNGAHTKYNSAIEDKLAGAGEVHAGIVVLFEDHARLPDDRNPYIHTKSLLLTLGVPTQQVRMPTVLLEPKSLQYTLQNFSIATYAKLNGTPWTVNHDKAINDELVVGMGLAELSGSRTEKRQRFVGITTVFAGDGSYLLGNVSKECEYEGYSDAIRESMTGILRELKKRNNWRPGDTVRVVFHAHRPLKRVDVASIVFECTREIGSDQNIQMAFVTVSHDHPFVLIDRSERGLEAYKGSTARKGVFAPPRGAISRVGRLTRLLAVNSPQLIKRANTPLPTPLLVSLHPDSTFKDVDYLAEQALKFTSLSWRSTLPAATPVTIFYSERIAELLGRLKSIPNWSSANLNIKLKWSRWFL

RsAgo K506A = biological target: T2, RsAgo K506A (Rhodobacter sphaeroides (ATCC 17025D-5), UniProt A4WYU7 1-777, K506A); assay: fluorescence polarization; 5 mM Mg2+; FP: 20 mM HEPES-KOH pH 7.5, 200 mM NaCl, 5 mM MgCl2, 0.01 mg/ml E. coli total tRNA, 0.01% NP-40, 10 pM probe, 25 C; EMSA: 20 mM HEPES-KOH pH 7.5, 200 mM NaCl, 5
T2 sequence: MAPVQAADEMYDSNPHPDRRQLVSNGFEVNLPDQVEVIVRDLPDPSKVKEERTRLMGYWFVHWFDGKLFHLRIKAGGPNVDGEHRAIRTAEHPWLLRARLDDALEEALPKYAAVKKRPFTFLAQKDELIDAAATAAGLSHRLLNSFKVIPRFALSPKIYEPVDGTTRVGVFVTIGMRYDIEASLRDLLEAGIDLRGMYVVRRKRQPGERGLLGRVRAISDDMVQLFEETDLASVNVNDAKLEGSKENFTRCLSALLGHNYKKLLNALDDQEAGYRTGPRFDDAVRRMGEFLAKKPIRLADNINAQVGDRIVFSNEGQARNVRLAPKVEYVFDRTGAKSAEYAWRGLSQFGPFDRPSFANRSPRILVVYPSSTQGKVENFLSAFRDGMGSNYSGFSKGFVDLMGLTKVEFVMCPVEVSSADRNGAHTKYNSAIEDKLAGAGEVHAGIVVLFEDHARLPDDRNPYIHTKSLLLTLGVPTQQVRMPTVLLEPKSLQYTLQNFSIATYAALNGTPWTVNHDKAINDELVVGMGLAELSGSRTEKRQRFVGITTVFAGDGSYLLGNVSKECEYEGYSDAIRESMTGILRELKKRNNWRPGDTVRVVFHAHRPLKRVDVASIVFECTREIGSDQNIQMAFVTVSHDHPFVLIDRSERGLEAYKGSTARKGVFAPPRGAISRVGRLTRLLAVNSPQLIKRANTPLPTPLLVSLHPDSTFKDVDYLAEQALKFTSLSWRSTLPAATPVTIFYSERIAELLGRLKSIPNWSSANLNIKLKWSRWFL

RsAgo WT = biological target: T3, RsAgo WT (Rhodobacter sphaeroides (ATCC 17025D-5), UniProt A4WYU7 1-777); assay: as above
T3 sequence: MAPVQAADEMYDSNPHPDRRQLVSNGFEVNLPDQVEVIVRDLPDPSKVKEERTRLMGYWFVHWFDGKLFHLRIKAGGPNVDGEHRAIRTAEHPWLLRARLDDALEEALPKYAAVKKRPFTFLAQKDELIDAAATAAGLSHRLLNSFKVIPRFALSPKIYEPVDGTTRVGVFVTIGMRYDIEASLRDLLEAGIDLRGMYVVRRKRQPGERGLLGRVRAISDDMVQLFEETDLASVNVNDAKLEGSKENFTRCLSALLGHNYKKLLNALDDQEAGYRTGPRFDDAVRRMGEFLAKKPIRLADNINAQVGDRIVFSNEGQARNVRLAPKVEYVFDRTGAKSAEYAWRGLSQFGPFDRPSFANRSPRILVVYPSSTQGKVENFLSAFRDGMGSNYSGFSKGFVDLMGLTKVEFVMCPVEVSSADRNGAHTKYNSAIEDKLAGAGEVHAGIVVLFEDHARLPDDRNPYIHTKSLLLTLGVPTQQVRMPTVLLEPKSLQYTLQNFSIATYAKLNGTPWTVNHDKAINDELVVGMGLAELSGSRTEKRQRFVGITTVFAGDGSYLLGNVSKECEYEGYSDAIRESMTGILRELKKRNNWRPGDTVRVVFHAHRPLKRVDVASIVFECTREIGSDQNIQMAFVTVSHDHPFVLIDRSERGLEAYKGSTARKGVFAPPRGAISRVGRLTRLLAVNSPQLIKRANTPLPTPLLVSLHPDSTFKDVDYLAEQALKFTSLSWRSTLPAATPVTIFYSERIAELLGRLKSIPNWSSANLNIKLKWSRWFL

UUACAACCUACUACCUCG (ssRNA, 5'-phosphate) [5'P-RNA (5'U-RNA), FAM]
binding result (RsAgo delP45-W63): binds | Kd (RsAgo K506A): 1030 ± 47 nM | Kd (RsAgo WT): 0.91 ± 0.06 nM
